This is an account of results in US20040235117A1.

For test [1], the target named is fusion protein (1), FasL trimer (flag sequence, linker, hFasL AA 139 to 281) (human) (UniProt P48023). The test is described as follows: BIAcore, 7 ul of 2.5 ug/ml Flag-FasL over immobilised M2 antibody. In general terms: In SPR one partner is held on a chip, and binding of the other changes the refractive index at the surface.
In test [2] the target is TRAIL trimer (flag sequence, linker, hTRAIL AA 95 to 281) (human) (UniProt P50591). Nature of the test: BIAcore, 7 ul of 2.5 ug/ml Flag-TRAIL over immobilised M2 antibody.
UniProt P50591, sequence (P50591 other isoform, or with tags, fused parts or gaps limits assumed): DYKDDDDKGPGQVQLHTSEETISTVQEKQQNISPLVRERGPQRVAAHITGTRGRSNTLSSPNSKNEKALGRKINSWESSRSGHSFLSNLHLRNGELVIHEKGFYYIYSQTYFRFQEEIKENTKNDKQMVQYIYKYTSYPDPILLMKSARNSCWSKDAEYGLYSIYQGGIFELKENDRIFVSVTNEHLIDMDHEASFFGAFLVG
Test [3] addresses fusion protein (5), TRAIL-ACRP30 (murine; human) (UniProt Q60994). Nature of the test: cell-based or functional assay.
UniProt Q60994, sequence (Q60994 other isoform, or with tags, fused parts or gaps limits assumed): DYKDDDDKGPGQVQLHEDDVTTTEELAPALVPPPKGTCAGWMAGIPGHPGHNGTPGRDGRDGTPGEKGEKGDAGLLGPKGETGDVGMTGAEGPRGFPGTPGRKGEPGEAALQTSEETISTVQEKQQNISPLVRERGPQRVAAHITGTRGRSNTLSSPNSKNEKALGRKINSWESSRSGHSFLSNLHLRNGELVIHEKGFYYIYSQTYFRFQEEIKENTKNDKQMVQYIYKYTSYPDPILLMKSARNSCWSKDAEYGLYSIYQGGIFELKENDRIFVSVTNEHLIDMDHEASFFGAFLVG
Test [4] deals with fusion protein (3), super FasL (human) (UniProt P48023). Nature of the test: cell-based or functional assay.
Test [5] concerns the target fusion protein (1), FasL trimer (flag sequence, linker, hFasL AA 139 to 281) (human) (UniProt P48023). The test is described as follows: cell-based or functional assay.
The target of test [6] is TNF receptor 2 (TNF-R2) on CT6 cells (mouse (on CT6 cells of mice)) (UniProt P25119). The test is described as follows: cell-based or functional assay.
UniProt P25119, sequence (P25119 23-474): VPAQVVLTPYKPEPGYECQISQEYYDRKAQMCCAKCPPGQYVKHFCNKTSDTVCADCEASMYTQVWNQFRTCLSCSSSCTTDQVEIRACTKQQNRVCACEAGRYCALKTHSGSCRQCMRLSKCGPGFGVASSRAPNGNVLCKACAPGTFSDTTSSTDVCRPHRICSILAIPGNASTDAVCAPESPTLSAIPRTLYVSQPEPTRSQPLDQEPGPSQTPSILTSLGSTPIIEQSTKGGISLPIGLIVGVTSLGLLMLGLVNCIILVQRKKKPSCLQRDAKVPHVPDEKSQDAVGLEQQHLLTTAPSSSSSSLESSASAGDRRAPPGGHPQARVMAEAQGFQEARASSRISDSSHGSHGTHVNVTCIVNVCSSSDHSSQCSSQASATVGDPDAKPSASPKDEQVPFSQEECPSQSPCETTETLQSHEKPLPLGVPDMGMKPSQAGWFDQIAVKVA
The target in test [7] is Flag-CD40L (AA 116 to 261) (human) (UniProt P29965). The test is described as follows: competitive ELISA, CD40:Fc coated on the plate, sCD40L at constant concentration, protein A 1 ug/ml.
UniProt P29965, sequence (P29965 other isoform, or with tags, fused parts or gaps limits assumed): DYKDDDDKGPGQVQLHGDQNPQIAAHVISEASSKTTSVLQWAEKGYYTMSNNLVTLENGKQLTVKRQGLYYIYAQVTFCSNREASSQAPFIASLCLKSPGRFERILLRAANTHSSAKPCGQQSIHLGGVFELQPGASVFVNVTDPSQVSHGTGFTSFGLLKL
Test [8] shares this target. Nature of the test: competitive ELISA, CD40:Fc coated on the plate, sCD40L at constant concentration. (An ELISA detects its analyte on a solid surface through an enzyme-linked reagent.)
Test [9] concerns the target fusion protein (1), FasL trimer (flag sequence, linker, hFasL AA 139 to 281) (human) (UniProt P48023). The test is described as follows: cell-based or functional assay. This is another data set of the same source.
Test [10] shares this target. The test is described as follows: BIAcore, Flag-FasL captured on an M2-modified CM5 chip; reference Fas:Fc.
Test [11] has the same target. Nature of the test: BIAcore, Flag-FasL captured on an M2-modified CM5 chip, receptor fusion protein injected.

One may read the Kd as the free concentration of one partner at which half of the binding sites on the other are occupied at equilibrium, for simple one-to-one binding. A lower Kd goes with a tighter complex.

Where “and” joins values, the source holds several entries; their conditions need not be identical. Equal entries are not always repeated.

For the molecule anti-flag M2 monoclonal antibody, the units bound (BIAcore response) in test [1] and in test [2] was 100 to 150 units each time. Moreover, the cytotoxic assay on Jurkat cells, fold increase of apoptosis-inducing activity in [3] was > 10 fold. The cytotoxic assay on A20 and Jurkat cells, fold increase of apoptotic activity in test [4] is 2 fold and > 1.5 fold.

With “Fas:CMP (from UniProt P25445 1-170) (receptor)”, in test [5], the inhibition of sFasL-mediated lysis, fold less effective than Fas:COMP turned out to be 5 fold.

“fusion protein (6), TNFα-ACRP30 (from UniProt Q60994 18-111; P06804 77-235) (ligand)” gave a 3[H]-thymidin incorporation into CT6 cells (cell proliferation) in test [6] of 5 ng/mL.

For the molecule “CD40:Fc/PA (from UniProt P25942 21-193) (Fc fusion)”, in test [7], the fold increase in the affinity (against CD40:Fc) was 8 fold.

For CD40:COMP (receptor), the fold increase in the affinity (against CD40:Fc) in test [8] is 30 fold.

B1: Fas:COMP (receptor, not shown: small tags and cut ends)
chain: QVTDINSKGLELRKTVTTVETQNLEGLHHDGQFCHKPCPPGERKARDCTVNGDEPDCVPCQEGKEYTDKAHFSSKCRRCRLCDEGHGLEVEINCTRTQNTKCRCKPNFFCNSTVCEHCDPCTKCEHGIIKECTLTSNTKCKEEGSPQPQPKPQPKPEPEGGCCQMLRELQETNAALQDVRELLRHRVKEITFLKNTVMECDACGMQPARTPGGGS
modifications: Assembles as a disulphide-linked pentamer through the COMP coiled coil (about 400 kDa by gel filtration). N-glycosylated.
On to B1, for which the inhibitory activity in cytotoxicity tests on cell lines, fold over Fas:Fc in [9] lay within 10 to 20 fold. In test [10], this molecule yielded a fold lower dissociation constant than Fas:Fc of 8 to 9 fold. Besides, the Kd in test [11] was 0.77 nM.
